In patent US20110118131A1 (published 2011):

biological target: T1, IL-1beta (UniProt P01584 117-269); experiment: Biacore
T1 construct: also called IL-1β

Binder | binding result | fold difference in affinity vs parental [fold]
XPA23 Fab, heavy chain S52F (Fab, V domains shown) VH: EVQLLESGGGLVQPGGSLRLSCAASGFTFSKYFMFWVRQAPGKGLEWVSVIFPSGGMTRYADSVKGRFTISRDNSKNTLYLQMNSLRAEDTAVYYCARVGYGGNSDYWGQGTLVTVSS VL: DIQMTQSPSSVSASVGDRLTIICRASQDINRWLAWYQQTPGNAPKLLIHSATSLQSGVPSRFSGSGSGTDFTLTINSLQPEDFATYYCQQADSFPLTFGGGTKVEIK | no binding | –
XPA23 Fab, heavy chain S54W (Fab, V domains shown) VH: EVQLLESGGGLVQPGGSLRLSCAASGFTFSKYFMFWVRQAPGKGLEWVSVISPWGGMTRYADSVKGRFTISRDNSKNTLYLQMNSLRAEDTAVYYCARVGYGGNSDYWGQGTLVTVSS VL: DIQMTQSPSSVSASVGDRLTIICRASQDINRWLAWYQQTPGNAPKLLIHSATSLQSGVPSRFSGSGSGTDFTLTINSLQPEDFATYYCQQADSFPLTFGGGTKVEIK | – | 1.07
XPA23 Fab, heavy chain S105N (Fab, V domains shown) VH: EVQLLESGGGLVQPGGSLRLSCAASGFTFSKYFMFWVRQAPGKGLEWVSVISPSGGMTRYADSVKGRFTISRDNSKNTLYLQMNSLRAEDTAVYYCARVGYGGNNDYWGQGTLVTVSS VL: DIQMTQSPSSVSASVGDRLTIICRASQDINRWLAWYQQTPGNAPKLLIHSATSLQSGVPSRFSGSGSGTDFTLTINSLQPEDFATYYCQQADSFPLTFGGGTKVEIK | – | 0.85
XPA23 Fab, heavy chain S52R (Fab, V domains shown) VH: EVQLLESGGGLVQPGGSLRLSCAASGFTFSKYFMFWVRQAPGKGLEWVSVIRPSGGMTRYADSVKGRFTISRDNSKNTLYLQMNSLRAEDTAVYYCARVGYGGNSDYWGQGTLVTVSS VL: DIQMTQSPSSVSASVGDRLTIICRASQDINRWLAWYQQTPGNAPKLLIHSATSLQSGVPSRFSGSGSGTDFTLTINSLQPEDFATYYCQQADSFPLTFGGGTKVEIK | no binding | –
XPA23 Fab, heavy chain S54R (Fab, V domains shown) VH: EVQLLESGGGLVQPGGSLRLSCAASGFTFSKYFMFWVRQAPGKGLEWVSVISPRGGMTRYADSVKGRFTISRDNSKNTLYLQMNSLRAEDTAVYYCARVGYGGNSDYWGQGTLVTVSS VL: DIQMTQSPSSVSASVGDRLTIICRASQDINRWLAWYQQTPGNAPKLLIHSATSLQSGVPSRFSGSGSGTDFTLTINSLQPEDFATYYCQQADSFPLTFGGGTKVEIK | – | 1.43
XPA23 Fab, heavy chain S105H (Fab, V domains shown) VH: EVQLLESGGGLVQPGGSLRLSCAASGFTFSKYFMFWVRQAPGKGLEWVSVISPSGGMTRYADSVKGRFTISRDNSKNTLYLQMNSLRAEDTAVYYCARVGYGGNHDYWGQGTLVTVSS VL: DIQMTQSPSSVSASVGDRLTIICRASQDINRWLAWYQQTPGNAPKLLIHSATSLQSGVPSRFSGSGSGTDFTLTINSLQPEDFATYYCQQADSFPLTFGGGTKVEIK | – | 0.05
XPA23 Fab, heavy chain S105Q (Fab, V domains shown) VH: EVQLLESGGGLVQPGGSLRLSCAASGFTFSKYFMFWVRQAPGKGLEWVSVISPSGGMTRYADSVKGRFTISRDNSKNTLYLQMNSLRAEDTAVYYCARVGYGGNQDYWGQGTLVTVSS VL: DIQMTQSPSSVSASVGDRLTIICRASQDINRWLAWYQQTPGNAPKLLIHSATSLQSGVPSRFSGSGSGTDFTLTINSLQPEDFATYYCQQADSFPLTFGGGTKVEIK | – | 0.98
XPA23 Fab, heavy chain S52N (Fab, V domains shown) VH: EVQLLESGGGLVQPGGSLRLSCAASGFTFSKYFMFWVRQAPGKGLEWVSVINPSGGMTRYADSVKGRFTISRDNSKNTLYLQMNSLRAEDTAVYYCARVGYGGNSDYWGQGTLVTVSS VL: DIQMTQSPSSVSASVGDRLTIICRASQDINRWLAWYQQTPGNAPKLLIHSATSLQSGVPSRFSGSGSGTDFTLTINSLQPEDFATYYCQQADSFPLTFGGGTKVEIK | no binding | –
XPA23 Fab, heavy chain S54D (Fab, V domains shown) VH: EVQLLESGGGLVQPGGSLRLSCAASGFTFSKYFMFWVRQAPGKGLEWVSVISPDGGMTRYADSVKGRFTISRDNSKNTLYLQMNSLRAEDTAVYYCARVGYGGNSDYWGQGTLVTVSS VL: DIQMTQSPSSVSASVGDRLTIICRASQDINRWLAWYQQTPGNAPKLLIHSATSLQSGVPSRFSGSGSGTDFTLTINSLQPEDFATYYCQQADSFPLTFGGGTKVEIK | – | 0.12
XPA23 Fab, heavy chain S105E (Fab, V domains shown) VH: EVQLLESGGGLVQPGGSLRLSCAASGFTFSKYFMFWVRQAPGKGLEWVSVISPSGGMTRYADSVKGRFTISRDNSKNTLYLQMNSLRAEDTAVYYCARVGYGGNEDYWGQGTLVTVSS VL: DIQMTQSPSSVSASVGDRLTIICRASQDINRWLAWYQQTPGNAPKLLIHSATSLQSGVPSRFSGSGSGTDFTLTINSLQPEDFATYYCQQADSFPLTFGGGTKVEIK | – | 1.17
XPA23 Fab, heavy chain S52Y (Fab, V domains shown) VH: EVQLLESGGGLVQPGGSLRLSCAASGFTFSKYFMFWVRQAPGKGLEWVSVIYPSGGMTRYADSVKGRFTISRDNSKNTLYLQMNSLRAEDTAVYYCARVGYGGNSDYWGQGTLVTVSS VL: DIQMTQSPSSVSASVGDRLTIICRASQDINRWLAWYQQTPGNAPKLLIHSATSLQSGVPSRFSGSGSGTDFTLTINSLQPEDFATYYCQQADSFPLTFGGGTKVEIK | no binding | –
XPA23 Fab, heavy chain S52W (Fab, V domains shown) VH: EVQLLESGGGLVQPGGSLRLSCAASGFTFSKYFMFWVRQAPGKGLEWVSVIWPSGGMTRYADSVKGRFTISRDNSKNTLYLQMNSLRAEDTAVYYCARVGYGGNSDYWGQGTLVTVSS VL: DIQMTQSPSSVSASVGDRLTIICRASQDINRWLAWYQQTPGNAPKLLIHSATSLQSGVPSRFSGSGSGTDFTLTINSLQPEDFATYYCQQADSFPLTFGGGTKVEIK | no binding | –
XPA23 Fab, heavy chain S54F (Fab, V domains shown) VH: EVQLLESGGGLVQPGGSLRLSCAASGFTFSKYFMFWVRQAPGKGLEWVSVISPFGGMTRYADSVKGRFTISRDNSKNTLYLQMNSLRAEDTAVYYCARVGYGGNSDYWGQGTLVTVSS VL: DIQMTQSPSSVSASVGDRLTIICRASQDINRWLAWYQQTPGNAPKLLIHSATSLQSGVPSRFSGSGSGTDFTLTINSLQPEDFATYYCQQADSFPLTFGGGTKVEIK | – | 0.87
XPA23 Fab, heavy chain S54E (Fab, V domains shown) VH: EVQLLESGGGLVQPGGSLRLSCAASGFTFSKYFMFWVRQAPGKGLEWVSVISPEGGMTRYADSVKGRFTISRDNSKNTLYLQMNSLRAEDTAVYYCARVGYGGNSDYWGQGTLVTVSS VL: DIQMTQSPSSVSASVGDRLTIICRASQDINRWLAWYQQTPGNAPKLLIHSATSLQSGVPSRFSGSGSGTDFTLTINSLQPEDFATYYCQQADSFPLTFGGGTKVEIK | – | 0.03
XPA23 Fab, heavy chain S54Y (Fab, V domains shown) VH: EVQLLESGGGLVQPGGSLRLSCAASGFTFSKYFMFWVRQAPGKGLEWVSVISPYGGMTRYADSVKGRFTISRDNSKNTLYLQMNSLRAEDTAVYYCARVGYGGNSDYWGQGTLVTVSS VL: DIQMTQSPSSVSASVGDRLTIICRASQDINRWLAWYQQTPGNAPKLLIHSATSLQSGVPSRFSGSGSGTDFTLTINSLQPEDFATYYCQQADSFPLTFGGGTKVEIK | – | 0.99
XPA23 Fab, heavy chain S52K (Fab, V domains shown) VH: EVQLLESGGGLVQPGGSLRLSCAASGFTFSKYFMFWVRQAPGKGLEWVSVIKPSGGMTRYADSVKGRFTISRDNSKNTLYLQMNSLRAEDTAVYYCARVGYGGNSDYWGQGTLVTVSS VL: DIQMTQSPSSVSASVGDRLTIICRASQDINRWLAWYQQTPGNAPKLLIHSATSLQSGVPSRFSGSGSGTDFTLTINSLQPEDFATYYCQQADSFPLTFGGGTKVEIK | no binding | –
XPA23 Fab, heavy chain S54N (Fab, V domains shown) VH: EVQLLESGGGLVQPGGSLRLSCAASGFTFSKYFMFWVRQAPGKGLEWVSVISPNGGMTRYADSVKGRFTISRDNSKNTLYLQMNSLRAEDTAVYYCARVGYGGNSDYWGQGTLVTVSS VL: DIQMTQSPSSVSASVGDRLTIICRASQDINRWLAWYQQTPGNAPKLLIHSATSLQSGVPSRFSGSGSGTDFTLTINSLQPEDFATYYCQQADSFPLTFGGGTKVEIK | – | 0.08
XPA23 Fab, heavy chain S105F (Fab, V domains shown) VH: EVQLLESGGGLVQPGGSLRLSCAASGFTFSKYFMFWVRQAPGKGLEWVSVISPSGGMTRYADSVKGRFTISRDNSKNTLYLQMNSLRAEDTAVYYCARVGYGGNFDYWGQGTLVTVSS VL: DIQMTQSPSSVSASVGDRLTIICRASQDINRWLAWYQQTPGNAPKLLIHSATSLQSGVPSRFSGSGSGTDFTLTINSLQPEDFATYYCQQADSFPLTFGGGTKVEIK | – | 1.25
XPA23 Fab, heavy chain S54K (Fab, V domains shown) VH: EVQLLESGGGLVQPGGSLRLSCAASGFTFSKYFMFWVRQAPGKGLEWVSVISPKGGMTRYADSVKGRFTISRDNSKNTLYLQMNSLRAEDTAVYYCARVGYGGNSDYWGQGTLVTVSS VL: DIQMTQSPSSVSASVGDRLTIICRASQDINRWLAWYQQTPGNAPKLLIHSATSLQSGVPSRFSGSGSGTDFTLTINSLQPEDFATYYCQQADSFPLTFGGGTKVEIK | – | 1.53
XPA23 Fab, heavy chain S52H (Fab, V domains shown) VH: EVQLLESGGGLVQPGGSLRLSCAASGFTFSKYFMFWVRQAPGKGLEWVSVIHPSGGMTRYADSVKGRFTISRDNSKNTLYLQMNSLRAEDTAVYYCARVGYGGNSDYWGQGTLVTVSS VL: DIQMTQSPSSVSASVGDRLTIICRASQDINRWLAWYQQTPGNAPKLLIHSATSLQSGVPSRFSGSGSGTDFTLTINSLQPEDFATYYCQQADSFPLTFGGGTKVEIK | no binding | –
XPA23 Fab, heavy chain S54Q (Fab, V domains shown) VH: EVQLLESGGGLVQPGGSLRLSCAASGFTFSKYFMFWVRQAPGKGLEWVSVISPQGGMTRYADSVKGRFTISRDNSKNTLYLQMNSLRAEDTAVYYCARVGYGGNSDYWGQGTLVTVSS VL: DIQMTQSPSSVSASVGDRLTIICRASQDINRWLAWYQQTPGNAPKLLIHSATSLQSGVPSRFSGSGSGTDFTLTINSLQPEDFATYYCQQADSFPLTFGGGTKVEIK | – | 1.01
XPA23 Fab, heavy chain S52Q (Fab, V domains shown) VH: EVQLLESGGGLVQPGGSLRLSCAASGFTFSKYFMFWVRQAPGKGLEWVSVIQPSGGMTRYADSVKGRFTISRDNSKNTLYLQMNSLRAEDTAVYYCARVGYGGNSDYWGQGTLVTVSS VL: DIQMTQSPSSVSASVGDRLTIICRASQDINRWLAWYQQTPGNAPKLLIHSATSLQSGVPSRFSGSGSGTDFTLTINSLQPEDFATYYCQQADSFPLTFGGGTKVEIK | no binding | –
